Data reported in paper PMC4243253.

Test system: N[C@@H](CC(=O)c1ccccc1NC=O)C(=O)O
Experiment: purified protein
Details: 0.1 M sodium phosphate, pH 7.4, 20 μM ZnCl2, 25°C

PaKynB-His (Pseudomonas aeruginosa PAO1)
Km: 980 ± 130 µM | Vmax: 0.148 µmol/min | kcat: 114 s⁻¹ | kcat/Km: 116000 M⁻¹ s⁻¹
